Assay [1] deals with monkey CD20 (HEK293A/monkey CD20 cells) (monkey). Description: FACS on HEK293A/monkey CD20 (CynoCD20) cells, PE anti-human IgG secondary antibody, MFI.
Assay [2] addresses human CD3ε-his (Cat #:10977-H08s, SinoBiological, China) (human) (UniProt P07766). The experiment in a line: ELISA: plate coated with human CD3ε-his (hCD3ε-his), antibody titrated, HRP goat anti-human IgG, OD450.
Assay [3] shares this target. The experiment in a line: SPR (BIAcore 8K); human CD3ε-his coupled to CM5 chip, antibody injected.
Assay [4] has as its target monkey CD3 complex on cell surfaces (monkey PBMCs) (monkey). The experiment in a line: FACS on monkey PBMCs (Cyno-PBMC), given by the filing as binding to monkey CD3; PE goat anti-human IgG, MFI.

Chain of human CD3ε-his (Cat #:10977-H08s, SinoBiological, China) (human) (P07766 23-126 limits assumed): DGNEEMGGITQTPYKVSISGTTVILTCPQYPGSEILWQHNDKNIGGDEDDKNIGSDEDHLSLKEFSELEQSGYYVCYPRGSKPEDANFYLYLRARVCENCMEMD
Chain of monkey CD20 (HEK293A/monkey CD20 cells) (monkey) (P11836 other isoform, or with tags, fused parts or gaps): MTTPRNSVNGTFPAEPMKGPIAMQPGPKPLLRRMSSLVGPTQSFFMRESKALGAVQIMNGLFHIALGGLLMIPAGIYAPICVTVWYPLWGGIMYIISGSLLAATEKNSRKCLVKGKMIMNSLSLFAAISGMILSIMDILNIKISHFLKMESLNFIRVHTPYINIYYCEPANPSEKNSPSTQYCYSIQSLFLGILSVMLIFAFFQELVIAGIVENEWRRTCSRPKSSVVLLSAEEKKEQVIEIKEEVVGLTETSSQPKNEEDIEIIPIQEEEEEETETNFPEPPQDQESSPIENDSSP

For orientation: EC50 (read off the curve) means the concentration at which the effect is half-maximal. For orientation: Kd means the constant that tells how readily two partners part at equilibrium. Take “CD20-TCB (reference bispecific antibody against CD3 and CD20)”: the values for the EC50 (read off the curve) in assay [1], in assay [2] and in assay [4] were 0.06 µg/mL, 0.1 µg/mL and 0.6 µg/mL, respectively. In addition, in assay [3], the Kd is 5.6 nM.

The record behind these values is patent US20220195043A1.
